Test results published in the supplement of paper PMC7125110.
± gives the standard error. This sample holds only a part of the variants without activity.

B1: glmS ribozyme (parent)
chain: AUAAAAGCGCCAGAACUACAGAAAUGUAGUUGACGAGGAGGAGGUUUAUCGAAUUUUCGGCGGAUGCCUCCAAA

Tests used:
Conditions in all cases: with glucosamine-6-phosphate
glucosamine-6-phosphate [1] = variants of: B1; assay: self-cleavage kobs at 40 uM GlcN6P; higher = faster cleavage; RNA array
Summary of the method: (§1)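 Barcoded glmS ribozyme variants on sequenced MiSeq chips were transcribed in situ by E. coli RNA polymerase and tracked through a hybridised Cy3 probe at 37 °C. Glucosamine-6-phosphate (40 μM to 10 mM) in HEPES/KCl/Mg(OAc)2 buffer was flowed in, and tiles were imaged over ~14 h. Signals were normalised to baseline and to non-cleaving reference variants; per-tile medians were fit to one- or two-exponential decays to give kobs. kcat and KM came from weighted Michaelis–Menten fits across concentrations.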

glucosamine-6-phosphate [2] = variants of: B1; assay: self-cleavage kobs at 2500 uM GlcN6P; higher = faster cleavage; RNA array
Summary of the method: as §1

glucosamine-6-phosphate [3] = variants of: B1; assay: self-cleavage kobs at 160 uM GlcN6P; higher = faster cleavage; RNA array
Summary of the method: as §1

glucosamine-6-phosphate [4] = variants of: B1; assay: self-cleavage kobs at 640 uM GlcN6P; higher = faster cleavage; RNA array
Summary of the method: as §1

glucosamine-6-phosphate [5] = variants of: B1; assay: self-cleavage kobs at 10000 uM GlcN6P; higher = faster cleavage; RNA array
Summary of the method: as §1

Variant | self-cleavage kobs at 40 uM GlcN6P (glucosamine-6-phosphate [1]) [s⁻¹] | self-cleavage kobs at 2500 uM GlcN6P (glucosamine-6-phosphate [2]) [s⁻¹] | self-cleavage kobs at 160 uM GlcN6P (glucosamine-6-phosphate [3]) [s⁻¹] | self-cleavage kobs at 640 uM GlcN6P (glucosamine-6-phosphate [4]) [s⁻¹] | self-cleavage kobs at 10000 uM GlcN6P (glucosamine-6-phosphate [5]) [s⁻¹]
A15G U30A G41A G51U G62A | < 1e-05 | < 1e-05 |  |  | 
A14G C67U | 0.000746 ± 0.00014 | 0.0171 ± 0.0057 | 0.00183 ± 0.00033 | 0.00612 ± 0.00075 | 
A14G C67A | 0.000654 ± 7e-05 | 0.00642 ± 0.0014 | 0.00108 ± 0.00017 | 0.00492 ± 0.00077 | 0.0413 ± 0.01
A15U G40U G44A | < 1e-05 |  |  |  | < 1e-05
G13U U49A C58A C68U C70U | < 1e-05 |  |  |  | 
C16A C61U | < 1e-05 | < 1e-05 | < 1e-05 | < 1e-05 | < 1e-05
A14U A39C U49A | < 1e-05 |  |  |  | 
A14C C50G A64G | 4.29e-05 ± 2.1e-05 |  |  |  | 
A14C C34G G40U | < 1e-05 | < 1e-05 |  |  | 
A14U A42G G44U G63U | < 1e-05 | < 1e-05 |  |  | 
A14G C16U G37A C67G C70G | < 1e-05 | < 1e-05 |  |  | 
G13C G35U | < 1e-05 |  | < 1e-05 |  | < 1e-05
A14U A33G | < 1e-05 |  |  | < 1e-05 | < 1e-05
G13U A39C G44A | < 1e-05 |  |  |  | < 1e-05
A15C A42C | < 1e-05 |  |  | < 1e-05 | < 1e-05
G13U G32U G37A G40C | < 1e-05 |  |  |  | 
C16A G29U U30G U49G C70U | < 1e-05 |  |  |  | 
C16A G29C U56G A64G | 2.81e-05 ± 1.4e-05 |  |  |  | 0.00203 ± 0.00038
C16G U49C | < 1e-05 | < 1e-05 | < 1e-05 |  | < 1e-05
A15U C16A G60U | < 1e-05 |  |  |  | < 1e-05
G13C U45C U46A | < 1e-05 |  | < 1e-05 | < 1e-05 | < 1e-05
G13U A33G | < 1e-05 | < 1e-05 | < 1e-05 | < 1e-05 | < 1e-05
G13U A36U A48G U55C C68G C70U | 0.0002 ± 6.4e-05 |  |  |  | 0.000527 ± 0.00022
A14G U31A A52C | < 1e-05 |  |  |  | 
G13U A14U U30C A33C C71A | < 1e-05 |  |  |  | < 1e-05

Variant | self-cleavage kobs at 40 uM GlcN6P (glucosamine-6-phosphate [1]) [s⁻¹] | self-cleavage kobs at 2500 uM GlcN6P (glucosamine-6-phosphate [2]) [s⁻¹] | self-cleavage kobs at 160 uM GlcN6P (glucosamine-6-phosphate [3]) [s⁻¹] | self-cleavage kobs at 640 uM GlcN6P (glucosamine-6-phosphate [4]) [s⁻¹] | self-cleavage kobs at 10000 uM GlcN6P (glucosamine-6-phosphate [5]) [s⁻¹]
A15G U47A C50A | < 1e-05 |  |  |  | 
A14C U46A G59A C68G | < 1e-05 |  |  |  | 
A15U U30G G41U | 0.000122 ± 2.7e-05 | 0.000705 ± 0.00027 |  |  | 0.0015 ± 0.00032
A15G G32C G41A C70A | < 1e-05 |  |  |  | 
A14U G32C U45A U47G | < 1e-05 |  |  |  | 3.36e-05 ± 1.4e-05
C16U A33U C68A | < 1e-05 |  | < 1e-05 |  | 
A15G U30A U31G G41U | 0.00015 ± 5.1e-05 |  |  |  | 0.000456 ± 0.00017
A15G A33G G41C | < 1e-05 |  |  |  | < 1e-05
C16A U57G | < 1e-05 |  |  |  | 
A14G U45A A48U | 0.000108 ± 2.6e-05 |  |  |  | 0.00563 ± 0.001
A15U G43U | < 1e-05 |  | < 1e-05 | < 1e-05 | < 1e-05
A14G G41U U45A C70U | 0.000293 ± 5.4e-05 | 0.00191 ± 0.00054 | 0.00043 ± 0.00013 | 0.000588 ± 0.00015 | 0.000993 ± 0.00019
A14U G29C G38U C50G | 0.000223 ± 7.2e-05 |  |  |  | 7.38e-05 ± 1.8e-05
C16A C71U | 5.08e-05 ± 8.3e-06 | 0.000355 ± 5.3e-05 | 0.000159 ± 3.6e-05 | 0.000293 ± 3.5e-05 | 0.00133 ± 0.00014
A15G U56G | 0.000419 ± 4.9e-05 | 0.00559 ± 0.00073 | 0.000989 ± 0.00014 | 0.00325 ± 0.00045 | 0.0296 ± 0.0053
A15C G38C A52G | < 1e-05 | < 1e-05 |  |  | 
A14G G37A A42U U69A | 0.000165 ± 2.5e-05 |  |  | 0.00196 ± 0.00035 | 0.0157 ± 0.0032
A15G A48U U55C | < 1e-05 |  |  |  | 0.000412 ± 8.4e-05
G13U G38U A52G C68G U69G | 0.000165 ± 5.9e-05 |  |  |  | 8.14e-05 ± 2.1e-05
A15G A42G A53G | 0.00166 ± 0.00034 |  |  | 0.00796 ± 0.003 | 
A15G U69C | 0.00027 ± 7e-05 | 0.00345 ± 0.0012 |  | 0.00141 ± 0.00058 | 
A15U G51C A64G | < 1e-05 |  |  |  | 
A15G U49C | < 1e-05 |  |  | < 1e-05 | 
A15U G29C G43C | < 1e-05 |  |  |  | 
C16G U30G C50G | 0.00013 ± 4.8e-05 | 0.000324 ± 5e-05 |  | 6.59e-05 ± 3.2e-05 | 7.3e-05 ± 1.9e-05
